Patent US20110300138A1 (published 2011)
Like-named read-outs stand apart in the source and are kept apart here.

Key:
Experiment in all cases: cell-based or functional assay
[1] = biological target: TSHR with Arg80 mutated to Ala expressed in CHO cells (human) (UniProt P16473)
[2] = biological target: wild type TSHR expressed in CHO cells (human) (UniProt P16473)
[3] = biological target: wild type TSHR (human TSH receptor) expressed in CHO cells (human) (UniProt P16473)
[4] = biological target: TSHR with Thr257 mutated to Ala, expressed in CHO cells (human) (UniProt P16473)
[5] = biological target: TSHR with Tyr82 mutated to Ala expressed in CHO cells (human) (UniProt P16473)
[6] = biological target: wild type TSHR expressed in CHO cells (human) (UniProt P16473); remark: listed apart in the source
[7] = biological target: TSHR with Glu178 mutated to Ala expressed in CHO cells (human) (UniProt P16473)
[8] = biological target: TSHR with Lys183 mutated to Ala expressed in CHO cells (human) (UniProt P16473)
[9] = biological target: wild type TSHR (human TSH receptor) expressed in CHO cells (human) (UniProt P16473); remark: listed apart in the source
[10] = biological target: TSHR with Arg255 mutated to Ala, expressed in CHO cells (human) (UniProt P16473)
[11] = biological target: TSHR with Lys58 mutated to Ala expressed in CHO cells (human) (UniProt P16473)
[12] = biological target: wild type TSHR expressed in CHO cells (human) (UniProt P16473); remark: listed apart in the source
[13] = biological target: TSHR with Lys250 mutated to Ala (expressed in CHO cells) (human) (UniProt P16473)
[14] = biological target: TSHR with Asp203 mutated to Ala expressed in CHO cells (human) (UniProt P16473)
[15] = biological target: TSHR with Lys183 mutated to Asp expressed in CHO cells (human) (UniProt P16473)
[16] = biological target: human TSHR with Glu251 mutated to Ala expressed in CHO cells (human) (UniProt P16473)
[17] = biological target: wild type TSHR expressed in CHO cells (human) (UniProt P16473); remark: listed apart in the source
[18] = biological target: wild type TSHR (human TSH receptor) expressed in CHO cells (human) (UniProt P16473); remark: listed apart in the source
[19] = biological target: TSHR with Trp258 mutated to Ala, expressed in CHO cells (human) (UniProt P16473)

Cyclic AMP produced at 0.01 ng/mL TSH [1]: 4.06 pmol/mL
Cyclic AMP produced at 0.03 ng/mL TSH [1]: 6.19 pmol/mL
Cyclic AMP produced at 0.1 ng/mL TSH [1]: 13.3 pmol/mL
Cyclic AMP produced at 0.3 ng/mL TSH [1]: 27.7 pmol/mL
Cyclic AMP produced at 1 ng/mL TSH [1]: 54.5 pmol/mL
Cyclic AMP produced at 3 ng/mL TSH [1]: 57 pmol/mL
Mutated/Wild type (%) of cyclic AMP at 0.01 ng/mL TSH [1]: 203%
Mutated/Wild type (%) of cyclic AMP at 0.03 ng/mL TSH [1]: 168%
Mutated/Wild type (%) of cyclic AMP at 0.1 ng/mL TSH [1]: 146%
Mutated/Wild type (%) of cyclic AMP at 0.3 ng/mL TSH [1]: 125%
Cyclic AMP produced at 0.01 ng/mL TSH [2]: 2 pmol/mL
Cyclic AMP produced at 0.03 ng/mL TSH [2]: 3.68 pmol/mL
Cyclic AMP produced at 0.1 ng/mL TSH [2]: 9.1 pmol/mL
Cyclic AMP produced at 0.3 ng/mL TSH [2]: 22.2 pmol/mL
Cyclic AMP produced at 1 ng/mL TSH [2]: 57.5 pmol/mL
Cyclic AMP produced at 3 ng/mL TSH [2]: 58.5 pmol/mL
Cyclic AMP produced; TSH 3 ng/mL [3]: 66.1 pmol/mL
Cyclic AMP produced; TSH (2) 3 ng/mL, run at the end of assay [3]: 93 pmol/mL
% inhibition of TSH stimulation; TSH (2), run at the end of assay [4]: 8%
Cyclic AMP produced; TSH 3 ng/mL [4]: 93.2 pmol/mL
Cyclic AMP produced; TSH (2) 3 ng/mL, run at the end of assay [4]: 85.4 pmol/mL
Mutated/wild type (%) of cyclic AMP produced; TSH 3 ng/mL [4]: 141%
Cyclic AMP produced at 0.01 ng/mL TSH [5]: 2.6 pmol/mL
Cyclic AMP produced at 0.03 ng/mL TSH [5]: 4.1 pmol/mL
Cyclic AMP produced at 0.1 ng/mL TSH [5]: 9.64 pmol/mL
Cyclic AMP produced at 0.3 ng/mL TSH [5]: 33.7 pmol/mL
Cyclic AMP produced at 1 ng/mL TSH [5]: 50 pmol/mL
Cyclic AMP produced at 3 ng/mL TSH [5]: 61.3 pmol/mL
Mutated/Wild type (%) of cyclic AMP at 0.01 ng/mL TSH [5]: 257%
Mutated/Wild type (%) of cyclic AMP at 0.03 ng/mL TSH [5]: 93%
Mutated/Wild type (%) of cyclic AMP at 0.1 ng/mL TSH [5]: 100%
Mutated/Wild type (%) of cyclic AMP at 0.3 ng/mL TSH [5]: 113%
Mutated/Wild type (%) of cyclic AMP at 3 ng/mL TSH [5]: 108%
Cyclic AMP produced at 0.01 ng/mL TSH [6]: 1.01 pmol/mL
Cyclic AMP produced at 0.03 ng/mL TSH [6]: 4.39 pmol/mL
Cyclic AMP produced at 0.1 ng/mL TSH [6]: 9.67 pmol/mL
Cyclic AMP produced at 0.3 ng/mL TSH [6]: 29.8 pmol/mL
Cyclic AMP produced at 1 ng/mL TSH [6]: 53.3 pmol/mL
Cyclic AMP produced at 3 ng/mL TSH [6]: 56.6 pmol/mL
% inhibition of TSH stimulation; TSH (2), run at the end of assay; Exp 1 [7]: 12%
% inhibition of TSH stimulation; TSH (2), run at the end of assay; Exp 2 [7]: 5%
Cyclic AMP produced; TSH 3 ng/mL; Exp 1 [7]: 56.6 pmol/mL
Cyclic AMP produced; TSH 3 ng/mL; Exp 2 [7]: 46.2 pmol/mL
Cyclic AMP produced; TSH (2) 3 ng/mL, run at the end of assay; Exp 1 [7]: 50.1 pmol/mL
Cyclic AMP produced; TSH (2) 3 ng/mL, run at the end of assay; Exp 2 [7]: 44.1 pmol/mL
Mutated/wild type (%) of cyclic AMP produced; TSH 3 ng/mL; Exp 1 [7]: 107%
Mutated/wild type (%) of cyclic AMP produced; TSH 3 ng/mL; Exp 2 [7]: 53%
Mutated/wild type (%) of cyclic AMP produced; TSH (2) 3 ng/mL, run at the end of assay; Exp 1 [7]: 65%
Mutated/wild type (%) of cyclic AMP produced; TSH (2) 3 ng/mL, run at the end of assay; Exp 2 [7]: 50%
% inhibition of TSH stimulation, Exp 1: TSH (2) [8]: 18%
% inhibition of TSH stimulation, Exp 2: TSH (2) [8]: 23%
Cyclic AMP, Mutated/wild type (%), Exp 1: TSH 3 ng/mL [8]: 124%
Cyclic AMP, Mutated/wild type (%), Exp 1: TSH (2) [8]: 74%
Cyclic AMP, Mutated/wild type (%), Exp 2: TSH 3 ng/mL [8]: 128%
% inhibition of TSH stimulation, Exp 1: TSH (2) [9]: 0%
% inhibition of TSH stimulation, Exp 2: TSH (2) [9]: 0%
% inhibition of TSH stimulation: TSH (2) [9]: 0%
% inhibition of TSH stimulation; TSH (2), run at the end of assay [9]: 0%
Cyclic AMP produced; TSH 3 ng/mL [9]: 62.4 pmol/mL
Cyclic AMP produced; TSH (2) 3 ng/mL, run at the end of assay [9]: 68.4 pmol/mL
% inhibition of TSH stimulation; TSH (2), run at the end of assay [10]: 7%
Cyclic AMP produced; TSH 3 ng/mL [10]: 63.9 pmol/mL
Cyclic AMP produced; TSH (2) 3 ng/mL, run at the end of assay [10]: 59.6 pmol/mL
Mutated/wild type (%) of cyclic AMP produced; TSH 3 ng/mL [10]: 102%
Mutated/wild type (%) of cyclic AMP produced; TSH (2) 3 ng/mL, run at the end of assay [10]: 87%
Cyclic AMP produced at 0.01 ng/mL TSH [11]: 7.16 pmol/mL
Cyclic AMP produced at 0.03 ng/mL TSH [11]: 10 pmol/mL
Cyclic AMP produced at 0.1 ng/mL TSH [11]: 17.2 pmol/mL
Cyclic AMP produced at 0.3 ng/mL TSH [11]: 45.9 pmol/mL
Cyclic AMP produced at 1 ng/mL TSH [11]: 75.2 pmol/mL
Cyclic AMP produced at 3 ng/mL TSH [11]: 83.7 pmol/mL
Mutated/Wild type (%) of cyclic AMP at 0.01 ng/mL TSH [11]: 230%
Mutated/Wild type (%) of cyclic AMP at 0.03 ng/mL TSH [11]: 226%
Mutated/Wild type (%) of cyclic AMP at 0.1 ng/mL TSH [11]: 171%
Mutated/Wild type (%) of cyclic AMP at 0.3 ng/mL TSH [11]: 111%
Mutated/Wild type (%) of cyclic AMP at 1 ng/mL TSH [11]: 101%
Mutated/Wild type (%) of cyclic AMP at 3 ng/mL TSH [11]: 88%
% inhibition of TSH stimulation; TSH (2), run at the end of assay [12]: 0%
% inhibition of TSH stimulation; TSH (2), run at the end of assay, no antibody; Experiment 1 [12]: 0%
% inhibition of TSH stimulation; TSH (2), run at the end of assay, no antibody; Experiment 2 [12]: 12%
% inhibition of TSH stimulation; TSH (2), run at the end of assay; Exp 1 [12]: 0%
% inhibition of TSH stimulation; TSH (2), run at the end of assay; Exp 2 [12]: 0%
Cyclic AMP produced at 0.01 ng/mL TSH [12]: 3.11 pmol/mL
Cyclic AMP produced at 0.03 ng/mL TSH [12]: 4.43 pmol/mL
Cyclic AMP produced at 0.1 ng/mL TSH [12]: 10.1 pmol/mL
Cyclic AMP produced at 0.3 ng/mL TSH [12]: 41.2 pmol/mL
Cyclic AMP produced at 1 ng/mL TSH [12]: 74.5 pmol/mL
Cyclic AMP produced at 3 ng/mL TSH [12]: 95.3 pmol/mL
Cyclic AMP produced; TSH 3 ng/mL [12]: 85.8 pmol/mL
Cyclic AMP produced; TSH 3 ng/mL alone; Experiment 1 [12]: 77.9 pmol/mL
Cyclic AMP produced; TSH 3 ng/mL alone; Experiment 2 [12]: 86.5 pmol/mL
Cyclic AMP produced; TSH 3 ng/mL; Exp 1 [12]: 52.9 pmol/mL
Cyclic AMP produced; TSH 3 ng/mL; Exp 2 [12]: 87.2 pmol/mL
Cyclic AMP produced; TSH (2) 3 ng/mL, run at the end of assay [12]: 97.8 pmol/mL
Cyclic AMP produced; TSH (2) 3 ng/mL, run at the end of assay; Exp 1 [12]: 77.2 pmol/mL
Cyclic AMP produced; TSH (2) 3 ng/mL, run at the end of assay; Exp 2 [12]: 88.1 pmol/mL
Cyclic AMP produced; TSH (2) 3 ng/mL, run at the end of assay; Experiment 1 [12]: 84.5 pmol/mL
Cyclic AMP produced; TSH (2) 3 ng/mL, run at the end of assay; Experiment 2 [12]: 75.9 pmol/mL
% inhibition of TSH stimulation; TSH (2), run at the end of assay, no antibody; Experiment 1 [13]: 10%
% inhibition of TSH stimulation; TSH (2), run at the end of assay, no antibody; Experiment 2 [13]: 7%
Cyclic AMP produced; TSH 3 ng/mL alone; Experiment 1 [13]: 64.7 pmol/mL
Cyclic AMP produced; TSH 3 ng/mL alone; Experiment 2 [13]: 55 pmol/mL
Cyclic AMP produced; TSH (2) 3 ng/mL, run at the end of assay; Experiment 1 [13]: 58.3 pmol/mL
Cyclic AMP produced; TSH (2) 3 ng/mL, run at the end of assay; Experiment 2 [13]: 51.1 pmol/mL
Mutated/wild type (%) of cyclic AMP produced; TSH 3 ng/mL alone; Experiment 1 [13]: 83%
Mutated/wild type (%) of cyclic AMP produced; TSH 3 ng/mL alone; Experiment 2 [13]: 64%
% inhibition of TSH stimulation: TSH (2) [14]: 0%
Cyclic AMP, Mutated/wild type (%): TSH 3 ng/mL [14]: 76%
Cyclic AMP, Mutated/wild type (%): TSH (2) [14]: 87%
% inhibition of TSH stimulation; TSH (2), run at the end of assay [15]: 20%
Cyclic AMP produced; TSH 3 ng/mL [15]: 117 pmol/mL
Cyclic AMP produced; TSH (2) 3 ng/mL, run at the end of assay [15]: 93.4 pmol/mL
Mutated/wild type (%) of cyclic AMP produced; TSH 3 ng/mL [15]: 137%
% inhibition of TSH stimulation; TSH (2), run at the end of assay, no antibody [16]: 0%
Cyclic AMP produced; TSH 3 ng/mL alone [16]: 76.1 pmol/mL
Cyclic AMP produced; TSH (2) 3 ng/mL, run at the end of assay [16]: 87.4 pmol/mL
Mutated/wild type (%) of cyclic AMP produced; TSH 3 ng/mL alone [16]: 78%
Mutated/wild type (%) of cyclic AMP produced; TSH (2) 3 ng/mL, run at the end of assay [16]: 84%
% inhibition of TSH stimulation; TSH (2), run at the end of assay, no antibody [17]: 0%
Cyclic AMP produced; TSH 3 ng/mL alone [17]: 97.5 pmol/mL
Cyclic AMP produced; TSH (2) 3 ng/mL, run at the end of assay [17]: 104 pmol/mL
Cyclic AMP produced; TSH 3 ng/mL [18]: 58.8 pmol/mL
Cyclic AMP produced; TSH (2) 3 ng/mL, run at the end of assay [18]: 69.6 pmol/mL
% inhibition of TSH stimulation; TSH (2), run at the end of assay [19]: 20%
Cyclic AMP produced; TSH 3 ng/mL [19]: 59.9 pmol/mL
Cyclic AMP produced; TSH (2) 3 ng/mL, run at the end of assay [19]: 47.8 pmol/mL
Mutated/wild type (%) of cyclic AMP produced; TSH 3 ng/mL [19]: 102%
Substance: TSH (thyroid stimulating hormone) (ligand)
